According to US20230322888A1:

Tests used:
Experiment in all cases: cell-based or functional assay
[1] = target: cynomolgus monkey GLP1 receptor (cynomolgus monkey) (UniProt F8V479)
[2] = target: human GLP1 receptor (human) (UniProt P43220)
[3] = target: mouse GLP1 receptor (mouse) (UniProt O35659)
Chain of mouse GLP1 receptor (mouse) (O35659 22-463): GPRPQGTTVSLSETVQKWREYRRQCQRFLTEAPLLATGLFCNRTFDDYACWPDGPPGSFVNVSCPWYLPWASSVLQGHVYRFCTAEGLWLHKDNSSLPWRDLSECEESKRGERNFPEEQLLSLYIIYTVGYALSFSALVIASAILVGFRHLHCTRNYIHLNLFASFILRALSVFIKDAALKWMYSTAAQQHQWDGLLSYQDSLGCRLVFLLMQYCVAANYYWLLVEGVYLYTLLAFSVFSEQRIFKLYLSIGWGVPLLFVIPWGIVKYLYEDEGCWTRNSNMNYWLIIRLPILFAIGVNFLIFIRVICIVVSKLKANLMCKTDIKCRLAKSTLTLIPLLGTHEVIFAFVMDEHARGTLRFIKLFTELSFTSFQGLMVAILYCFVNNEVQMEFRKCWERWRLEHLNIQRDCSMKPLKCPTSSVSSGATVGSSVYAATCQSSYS

Chain of cynomolgus monkey GLP1 receptor (cynomolgus monkey) (F8V479 entry or part of it): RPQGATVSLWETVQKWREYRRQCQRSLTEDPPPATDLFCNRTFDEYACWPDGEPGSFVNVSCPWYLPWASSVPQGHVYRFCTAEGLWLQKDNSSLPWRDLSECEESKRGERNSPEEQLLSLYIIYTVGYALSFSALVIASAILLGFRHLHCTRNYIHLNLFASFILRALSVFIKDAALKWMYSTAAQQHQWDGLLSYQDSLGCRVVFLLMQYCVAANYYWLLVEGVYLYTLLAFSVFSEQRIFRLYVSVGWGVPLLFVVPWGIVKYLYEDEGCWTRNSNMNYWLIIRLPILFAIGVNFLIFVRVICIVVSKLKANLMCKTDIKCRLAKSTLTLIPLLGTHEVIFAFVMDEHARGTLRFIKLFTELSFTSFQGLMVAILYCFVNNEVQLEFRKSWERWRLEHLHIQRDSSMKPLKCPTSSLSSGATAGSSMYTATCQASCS
Chain of Dulaglutide (Fc fusion) (chain): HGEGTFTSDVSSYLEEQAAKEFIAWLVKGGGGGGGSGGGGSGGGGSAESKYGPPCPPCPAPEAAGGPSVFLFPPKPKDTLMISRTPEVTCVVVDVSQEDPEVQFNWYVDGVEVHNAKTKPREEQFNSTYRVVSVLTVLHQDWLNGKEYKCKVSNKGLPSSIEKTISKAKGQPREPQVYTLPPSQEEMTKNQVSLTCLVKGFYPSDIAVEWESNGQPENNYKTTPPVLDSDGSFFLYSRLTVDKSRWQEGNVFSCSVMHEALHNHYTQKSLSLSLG
Chain of Albiglutide (chain): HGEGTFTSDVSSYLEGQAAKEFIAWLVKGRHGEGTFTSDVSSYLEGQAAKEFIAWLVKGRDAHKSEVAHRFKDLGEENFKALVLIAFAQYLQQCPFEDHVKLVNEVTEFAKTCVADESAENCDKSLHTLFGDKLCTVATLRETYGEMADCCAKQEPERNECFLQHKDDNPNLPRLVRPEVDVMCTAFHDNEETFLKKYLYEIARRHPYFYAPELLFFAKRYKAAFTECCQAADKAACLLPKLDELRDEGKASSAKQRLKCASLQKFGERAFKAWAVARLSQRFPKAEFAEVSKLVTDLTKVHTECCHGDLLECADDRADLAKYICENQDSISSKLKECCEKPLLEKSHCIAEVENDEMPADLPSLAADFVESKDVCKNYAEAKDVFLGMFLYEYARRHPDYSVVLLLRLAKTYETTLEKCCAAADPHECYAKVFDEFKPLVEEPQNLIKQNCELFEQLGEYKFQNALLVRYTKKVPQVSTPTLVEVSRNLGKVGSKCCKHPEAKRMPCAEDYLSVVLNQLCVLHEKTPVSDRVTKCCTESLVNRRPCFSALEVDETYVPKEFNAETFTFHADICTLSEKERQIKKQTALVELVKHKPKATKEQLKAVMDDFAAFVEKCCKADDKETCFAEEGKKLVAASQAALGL
Chain of human GLP1 receptor (human) (P43220 24-463): as the sequence (F8V479 entry or part of it) above, with N112S, S120F, G202S, V205L, F237L, R241W, V249I counted along it

Substance | cAMP induction CGLP1R EC50 [1] | cAMP induction hGLP1R EC50 [2] | cAMP induction mGLP1R EC50 [3]
Albiglutide | 1.76 nM | 0.981 nM | 1.49 nM
GLP1 (from UniProt P01275 98-127) (peptide) | – | – | 0.012 nM
Liraglutide (peptide) | 0.079 nM | – | 0.052 nM
Dulaglutide (Fc fusion) | 0.045 nM | 0.038 nM | 0.02 nM
